“And” between values parts separate entries of the source, which are not always exact repeats. Identical values can stand only once. Where a SMILES comes first, the peptide text is derived from it. Bridges are numbered along the chain shown (N, C = ends). [ ]: non-standard residue; d: D form. The star is where a group is joined. DOTA = O=C(O)CN1CCN(CC(=O)O)CCN(CC(=O)*)CCN(CC(=O)O)CC1
Legend:
hSST2R [1] = biological target: T1, hSST2R (Homo sapiens, UniProt P30874); test: Immunofluorescence microscopy-based internalization assay in HEK293-hSST2R cells; format: cell-based; conditions: 1 µM, 30 min at 37 °C
T1 construct: expressed in transfected cells
Protocol: Figure 3 Agonist stimulated hSST2R-internalization in HEK293-hSST2R cells determined by immunofluorescence microscopy.
An immunofluorescence microscopy-based internalization assay for hSST2R was performed in HEK293-hSST2R cells, grown on poly-DLys (20 μg/mL) (Sigma-Aldrich, St. Louis, MO, USA) coated 35-mm four-well plates (Cellstar, Greiner Bio-One GmbH, Frickenhausen, Germany). […] HEK293-hSST2R cells treated with vehicle alone were used as a negative control. The cells were then rinsed twice with PS (100 mM phosphate buffer containing 0.15 M sucrose), fixed and permeabilized for 7 min with cold methanol (−20 °C), rinsed twice with PS, and then blocked for 60 min at room temperature with PS containing 0.1% BSA. Next, cells were incubated for 60 min at room temperature with the hSST2R-specific primary antibody R2-88 (provided by Dr. A. Schönbrunn, Houston, TX, USA) diluted 1:1000 in PS and washed 3 × 5 min with PS containing 0.1% BSA. The cells were incubated for 60 min at room temperature in the dark with the secondary antibody Alexa Fluor 488 goat anti-rabbit IgG (H+ L) (Molecular Probes, Inc., Eugene, OR, USA) diluted in PS (1:600), washed 3 × 5 min with PS containing 0.1% BSA, embedded with PS/glycerol 1:1, and covered with a glass cover slip. The cells were imaged using a Leica DM RB immunofluorescence microscope (Leica, Deerfield, IL, USA) and an Olympus DP10 camera (Olympus Corporation, Shinjuku, Tokyo, Japan).

[2] = mice, blood collected 5 min pi, radio-HPLC
Protocol: At 5 min pi blood (~1mL) was collected from the heart of mice in a prechilled insulin syringe and swiftly placed in an ice-cold polypropylene tube containing EDTA on ice. Blood samples were centrifuged at 2000× g at 4 °C for 10 min. […] The mixture was centrifuged for 10 min at 15,000× g at 4 °C. […] An RP18 Symmetry Shield cartridge column (5 μm, 3.9 mm × 20 mm, Waters, Vienna, Austria) was eluted at a 1 mL/min flow rate with the following gradient: 100%A/0%B to 60%A/40%B in 40 min, whereby A = 0.1% aqueous TFA and B = MeCN (system 3).

[3] = system: AR4-2J tumor-bearing SCID mice (rSST2R-positive); test: in vivo; conditions: AR4-2J mice, 4 h pi, block: co-injection of 100 nmol TATE; mean ± sd, n = 4
Protocol: (§1) For biodistribution experiments, male SCID mice of 7 weeks of age (15–20 g) on arrival day (NCSR ‘‘Demokritos’’ Animal House, Athens, Greece) were subcutaneously injected in their flanks with a suspension of AR4-2J cells (150 μL inocula of ~1 × 10^7 cells in PBS). The animals were kept under aseptic conditions for 12 days until well-palpable tumors were grown at the inoculation site. […] In an additional group, animals were co-injected with excess TATE (100 nmol) together with the radioligand (blocked animals) and were sacrificed at 4 h pi. Blood was immediately collected, and the organs of interest were excised and weighed. Sample radioactivity was measured in the γ-counter using proper standards of the injected activity. Data were calculated as %IA/g with the aid of standard solutions and represent mean values ± sd. For comparisons, a Two-way ANOVA with Tukey’s post hoc analysis was applied (PRISM^TM GraphPad—6 Software, San Diego, CA, USA). p values < 0.05 were considered statistically significant.

in vivo [4] = conditions: male, SCID, mouse, iv, total radioactivity
Protocol: as §1

in vivo [5] = conditions: male, SCID, mouse, iv, total radioactivity; remark: listed apart in the source
Protocol: (§2) For the second biodistribution experiments, male SCID mice of 7 weeks of age (15–20 g) on arrival day (NCSR ‘‘Demokritos’’ Animal House, Athens, Greece) were subcutaneously injected in their flanks with a suspension of HEK293-hSST3R cells (150 μL inocula of ~3 × 10^7 cells in PBS). The animals were kept under aseptic conditions for 3–4 weeks until well-palpable tumors were grown at the inoculation site. […] Mice were sacrificed at 4 h pi, and biodistribution analyses were conducted, as described above.

[6] = system: HEK293-hSST3R tumor-bearing SCID mice; test: in vivo; conditions: HEK293-hSST3R mice, 4 h pi, block: co-injection of 80 nmol KE108; mean ± sd, n = 4
Protocol: as §2

hSST2R [7] = biological target: T1, hSST2R; test: Receptor autoradiography competition binding vs [125I]I-[LTT]SS28
Protocol: (§3) Cell membrane pellets were prepared from CHO-hSST1R cells, CCL39-hSST2R, CCL39-hSST3R, and CCL39-hSST4R cells, and HEK293-hSST2R cells and stored at −80 °C. Receptor autoradiography was performed on 20-μm-thick cryostat (Microm HM 500, Walldorf, Germany) sections of the membrane pellets mounted on microscope slides, and then stored at −20 °C, as previously described. […] The incubated sections were washed twice for 5 min in cold 170 mmol/L Tris-HCl (pH 8.2) containing 0.25% BSA. After a brief dip in 170 mmol/L Tris-HCl (pH 8.2), the sections were dried quickly and exposed for 1 week to Kodak BioMax MR film (Rochester, NY, USA). IC50 values were calculated after quantification of the data using a computer-assisted image processing system as described previously. Tissue standards (Autoradiographic [^125I] and/or [^14C] microscales, GE Healthcare; Little Chalfont, UK) that contain known amounts of isotope, cross-calibrated to tissue-equivalent ligand concentrations, were used for quantification.

hSST3R = biological target: T2, hSST3R (Homo sapiens, UniProt P32745); test: as above
T2 construct: expressed in transfected cells; host or cells: CCL39 cells, gift of Dr. D. Hoyer (Novartis Pharma)
Protocol: as §3

hSST1R = biological target: T3, hSST1R (Homo sapiens, UniProt P30872); test: as above
T3 construct: expressed in transfected cells; host or cells: CHO cells, gift of Drs; T. Reisine and G. Singh
Protocol: as §3

hSST5R = biological target: T4, hSST5R (Homo sapiens, UniProt P35346); test: as above
T4 construct: expressed in transfected cells

[8] = AR4-2J tumor, 10 pmol total peptide
[9] = pancreas, 10 pmol total peptide

T4 sequence (P35346 whole entry): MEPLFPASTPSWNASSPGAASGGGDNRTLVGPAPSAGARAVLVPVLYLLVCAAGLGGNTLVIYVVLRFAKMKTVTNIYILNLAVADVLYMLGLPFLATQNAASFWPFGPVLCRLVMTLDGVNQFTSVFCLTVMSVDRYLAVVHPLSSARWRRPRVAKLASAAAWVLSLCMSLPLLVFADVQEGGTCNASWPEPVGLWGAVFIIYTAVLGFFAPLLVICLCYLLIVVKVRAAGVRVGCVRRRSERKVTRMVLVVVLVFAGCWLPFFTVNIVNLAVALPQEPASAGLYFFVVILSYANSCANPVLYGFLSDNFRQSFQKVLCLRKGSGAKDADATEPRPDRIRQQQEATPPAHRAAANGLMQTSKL
T2 sequence (P32745 whole entry): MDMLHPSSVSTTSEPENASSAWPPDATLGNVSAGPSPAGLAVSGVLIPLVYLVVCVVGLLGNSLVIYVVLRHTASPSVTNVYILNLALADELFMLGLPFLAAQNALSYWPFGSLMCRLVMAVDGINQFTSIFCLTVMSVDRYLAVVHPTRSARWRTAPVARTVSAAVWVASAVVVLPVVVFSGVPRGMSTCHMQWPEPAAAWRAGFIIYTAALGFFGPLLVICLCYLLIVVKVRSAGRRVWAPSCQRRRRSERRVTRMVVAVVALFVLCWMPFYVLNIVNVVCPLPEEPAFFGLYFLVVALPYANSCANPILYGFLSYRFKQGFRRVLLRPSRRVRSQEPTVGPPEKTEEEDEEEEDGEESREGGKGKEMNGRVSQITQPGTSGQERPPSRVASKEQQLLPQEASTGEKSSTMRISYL
T1 sequence (P30874 whole entry): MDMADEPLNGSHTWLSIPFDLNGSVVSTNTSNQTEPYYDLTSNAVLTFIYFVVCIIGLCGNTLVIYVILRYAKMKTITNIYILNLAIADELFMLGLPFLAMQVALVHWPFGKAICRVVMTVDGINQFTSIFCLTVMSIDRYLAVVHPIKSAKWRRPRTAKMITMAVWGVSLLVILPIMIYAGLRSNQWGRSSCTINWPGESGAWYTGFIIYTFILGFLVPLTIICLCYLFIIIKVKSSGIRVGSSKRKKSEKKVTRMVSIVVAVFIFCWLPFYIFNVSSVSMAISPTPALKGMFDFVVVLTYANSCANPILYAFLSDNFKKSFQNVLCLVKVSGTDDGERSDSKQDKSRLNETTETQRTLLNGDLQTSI
T3 sequence (P30872 whole entry): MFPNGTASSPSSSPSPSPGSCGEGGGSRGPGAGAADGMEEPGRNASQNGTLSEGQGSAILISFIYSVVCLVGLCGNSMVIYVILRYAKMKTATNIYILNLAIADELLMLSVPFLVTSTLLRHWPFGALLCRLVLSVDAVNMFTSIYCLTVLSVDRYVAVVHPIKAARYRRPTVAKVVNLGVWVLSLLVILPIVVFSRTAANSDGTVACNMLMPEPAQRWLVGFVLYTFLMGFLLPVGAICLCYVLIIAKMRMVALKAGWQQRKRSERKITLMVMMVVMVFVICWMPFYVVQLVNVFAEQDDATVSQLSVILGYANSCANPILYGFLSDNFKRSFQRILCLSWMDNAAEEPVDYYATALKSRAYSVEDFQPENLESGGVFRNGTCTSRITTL

## DOTA-Ala^1-Gly^2-c[Cys^3-Lys^4-Asn^5-Phe^6-Phe^7-Trp^8-Lys^9-Thr^10-Phe^11-Thr^12-Ser^13-Cys^14-OH] [AT1S, reference compound]
hSST2R [1]
  ligand-induced hSST2R internalization (agonism): clearly able to trigger the internalization of hSST2R

## C[C@H](NC(=O)CN1CCN(CC(=O)O)CCN(CC(=O)O)CCN(CC(=O)O)CC1)C(=O)NCC(=O)N[C@H]1CSSC[C@@H](C(=O)O)NC(=O)[C@H](CO)NC(=O)[C@@H]2CSSC[C@H](NC(=O)[C@H](CCCCN)NC1=O)C(=O)N[C@@H](Cc1ccccc1)C(=O)N[C@@H](Cc1ccccc1)C(=O)N[C@H](Cc1c[nH]c3ccccc13)C(=O)N[C@@H](CCCCN)C(=O)N[C@@H]([C@@H](C)O)C(=O)N[C@@H](Cc1ccccc1)C(=O)N2 [[^111In]In-AT6S, metal not drawn] ({DOTA}-AGCKCFF[dW]KTFCSC-OH; disulfide 3-14, 5-12)
[2]
  % intact radioligand in peripheral blood: > 98% and > 96%
[3]
  Tumor uptake: 0.8 ± 0.05 %IA/g
In vivo [4]; [8]
  tissue uptake at 4 h: 1.9 ± 0.1 %ID/g
  tissue uptake at 24 h: 0.8 ± 0.1 %ID/g
In vivo [4]; blood, 10 pmol total peptide
  tissue uptake at 4 h: 0.3 ± 0.01 %ID/g
  tissue uptake at 24 h: 0.07 %ID/g
In vivo [4]; femur, 10 pmol total peptide
  tissue uptake at 24 h: 0.6 ± 0.1 %ID/g
In vivo [4]; heart, 10 pmol total peptide
  tissue uptake at 4 h: 0.5 ± 0.05 %ID/g
  tissue uptake at 24 h: 0.3 ± 0.06 %ID/g
In vivo [4]; heart, with TATE 100 nmol co-injected (in vivo SST2R blockade)
  tissue uptake at 4 h: 0.7 ± 0.1 %ID/g
In vivo [4]; intestines, 10 pmol total peptide
  tissue uptake at 24 h: 0.6 ± 0.08 %ID/g
In vivo [4]; kidneys, 10 pmol total peptide
  tissue uptake at 24 h: 34.1 ± 3.9 %ID/g
In vivo [4]; kidneys, with TATE 100 nmol co-injected (in vivo SST2R blockade)
  tissue uptake at 4 h: 49.5 ± 10.5 %ID/g
In vivo [4]; liver, 10 pmol total peptide
  tissue uptake at 4 h: 16.6 ± 1.5 %ID/g
  tissue uptake at 24 h: 12.1 ± 2.4 %ID/g
In vivo [4]; muscle, 10 pmol total peptide
  tissue uptake at 24 h: 0.1 ± 0.03 %ID/g
In vivo [4]; [9]
  tissue uptake at 4 h: 0.5 ± 0.1 %ID/g
  tissue uptake at 24 h: 0.4 ± 0.07 %ID/g
In vivo [4]; spleen, 10 pmol total peptide
  tissue uptake at 24 h: 6 ± 1.1 %ID/g
In vivo [4]; stomach, 10 pmol total peptide
  tissue uptake at 4 h: 0.8 ± 0.04 %ID/g
  tissue uptake at 24 h: 0.3 ± 0.03 %ID/g
In vivo [4]; stomach, with TATE 100 nmol co-injected (in vivo SST2R blockade)
  tissue uptake at 4 h: 0.5 ± 0.2 %ID/g
In vivo [5]; HEK293-hSST3R tumor, 10 pmol total peptide
  tissue uptake at 4 h: 3.7 ± 0.4 %ID/g
In vivo [5]; blood, 10 pmol total peptide
  tissue uptake at 4 h: 0.3 ± 0.02 %ID/g
In vivo [5]; heart, 10 pmol total peptide
  tissue uptake at 4 h: 0.5 ± 0.05 %ID/g
In vivo [5]; heart, with KE108 80 nmol co-injected (in vivo SST3R blockade)
  tissue uptake at 4 h: 0.1 %ID/g
In vivo [5]; kidneys, with KE108 80 nmol co-injected (in vivo SST3R blockade)
  tissue uptake at 4 h: 26.8 ± 5.4 %ID/g
In vivo [5]; liver, 10 pmol total peptide
  tissue uptake at 4 h: 16.6 ± 1.5 %ID/g
In vivo [5]; [9]
  tissue uptake at 4 h: 0.5 ± 0.04 %ID/g
In vivo [5]; stomach, 10 pmol total peptide
  tissue uptake at 4 h: 0.8 ± 0.05 %ID/g
In vivo [5]; stomach, with KE108 80 nmol co-injected (in vivo SST3R blockade)
  tissue uptake at 4 h: 0.1 ± 0.04 %ID/g
[6]
  Tumor uptake: 0.3 ± 0.05 %IA/g

## C[C@H](NC(=O)CN1CCN(CC(=O)O)CCN(CC(=O)O)CCN(CC(=O)O)CC1)C(=O)NCC(=O)N[C@H]1CSSC[C@@H](C(=O)O)NC(=O)[C@H](CO)NC(=O)[C@@H]2CSSC[C@H](NC(=O)[C@H](CCCCN)NC1=O)C(=O)N[C@@H](Cc1ccccc1)C(=O)N[C@@H](Cc1ccccc1)C(=O)N[C@H](Cc1c[nH]c3ccccc13)C(=O)N[C@@H](CCCCN)C(=O)N[C@@H]([C@@H](C)O)C(=O)N[C@@H](Cc1ccccc1)C(=O)N2 [AT6S, DOTA-Ala^1-Gly^2-c[Cys^3-Lys^4-c[Cys^5-Phe^6-Phe^7-DTrp^8-Lys^9-Thr^10-Phe^11-Cys^12]-Ser^13-Cys^14]] ({DOTA}-AGCKCFF[dW]KTFCSC-OH; disulfide 3-14, 5-12)
hSST2R [1]
  ligand-induced hSST2R internalization (agonism): behaved as a potent agonist
hSST2R [7]
  IC50: 6.3 ± 0.6 nM
hSST2R [7]; vs AT2S
  lower affinity for hSST2R compared with AT2S: < 4 fold
hSST2R [7]; vs SS14
  drop in binding affinity for hSST2R compared with native hormone: 9 fold
hSST3R
  IC50: 9.7 ± 3.6 nM
hSST3R; vs AT2S
  lower affinity for hSST3R compared with AT2S: ≈ 4 fold
hSST3R; vs SS14
  drop in binding affinity for hSST3R compared with native hormone: ≈ 3 fold
hSST1R
  IC50: 12 ± 3.3 nM
hSST1R; vs SS14
  drop in binding affinity for hSST1R compared with native hormone: < 6 fold
hSST5R
  IC50: 26 ± 7 nM
hSST5R; vs AT2S
  lower affinity for hSST5R compared with AT2S: < 2 fold
hSST5R; vs SS14
  drop in binding affinity for hSST5R compared with native hormone: < 6 fold

— PMC10856354 (International Journal of Molecular Sciences, 2024)
